Patent US20240034783A1

Target: CLDN18.2 expressed in mouse healthy stomach tissue (mouse) (UniProt P56857)
Assay: flow cytometry, live cells from healthy mouse stomach, antibody 4 µg/ml

Binder	% of positive healthy stomach cells (Average)	% of positive healthy stomach cells (Mouse 1)	% of positive healthy stomach cells (Mouse 2)
cCl1-1 (antibody, V domains shown) VH: QIQLVQSGPELKKPGESVKISCKASGYTFTDYAMHWVKQAPGKGLKWMGWINTYTGKPTYADDFKGRFVFSLEASASTANLQISNLKNEDTATYFCARAVFYGYTMDAWGQGTSVTVSS VL: DIQMTQSPASLSASLGETISIACRASEDIYSNLAWYQQKSGKSPQLLIFSVKRLQDGVPSRFSGSGSGTQYSLKISGMQPEDEGDYFCLQGSNFPLTFGSGTKLEIK	0.35%	0.4%	0.3%
hCl1a (antibody, human IgG1, kappa, V domains shown) VH: QVQLVQSGAEVKKPGASVKVSCKASGYTFTDYAMHWVRQAPGQRLEWMGWINTYTGKPTYAQKFQGRVTITRDTSASTAYMELSSLRSEDTAVYYCARAVFYGYTMDAWGQGTLVTVSS VL: DIQMTQSPSSLSASVGDRVTITCRASEDIYSNLAWYQQKPGKAPKLLIFSVKRLQDGVPSRFSGSGSGTDFTLTISSLQPEDFATYYCLQGSNFPLTFGQGTKVEIKR	0.75%	1.2%	0.3%
hCl1c (antibody, human IgG1, kappa, V domains shown) VH: QVQLVQSGAEVKKPGASVKVSCKASGYTFTDYAMHWVRQAPGQRLEWMGWINTYTGKPTYSQKFQGRVTITRDTSASTAYMELSSLRSEDTAVYYCARAVFYGYTMDAWGQGTLVTVSS VL: DIQMTQSPSSLSASVGDRVTITCRTSEDIYSNLAWYQQKPGKAPKLLIFAIKRLQDGVPSRFSGSGSGTDFTLTISSLQPEDFATYYCLQGSKFPLTFGQGTKVEIKR	0.25%	0.1%	0.4%
hCl1f (antibody, human IgG1, kappa, V domains shown) VH: QVQLVQSGAEVKKPGASVKVSCKASGYTFTDYAMHWVRQAPGQRLEWMGWINAYTGKPTYAQKFQGRVTITRDTSASTAYMELSSLRSEDTAVYYCARAVFYGYTMDAWGQGTLVTVSS VL: DIQMTQSPSSLSASVGDRVTITCRASEDIYSNLAWYQQKPGKAPKLLIYSVKRLQDGVPSRFSGSGSGTDFTLTISSLQPEDFATYYCLQGSNFPLTFGQGTKVEIKR	0.07%	0.04%	0.1%
hCl1b (antibody, human IgG1, kappa, V domains shown) VH: QVQLVQSGAEVKKPGASVKVSCKASGYTFTDYAMHWVRQAPGQRLEWMGWINTYTGKPTYSQKFQGRVTITRDTSASTAYMELSSLRSEDTAVYYCARAVFYGYTMDAWGQGTLVTVSS VL: DIQMTQSPSSLSASVGDRVTITCRASEDIYSNLAWYQQKPGKAPKLLIFSVKRLQDGVPSRFSGSGSGTDFTLTISSLQPEDFATYYCLQGSNFPLTFGQGTKVEIKR	0.565%	1%	0.13%
